Reference: paper PMC6802964
pKd: −log10 of the molar value.

Columns and labels:
[1] = biological target: T1, CyPet–Myo1^IQ1–YPet FRET reporter protein (S. pombe); experiment: other fluorescence titration; change of the CyPet-YPet FRET signal of the IQ-FRET protein (1 µM by the methods, 0.5 µM by the legend) with varying concentrations of Cam1 or Cam2; 140 mM KCl, 20 mM MOPS pH 7.0, with or without 2 mM MgCl2, 2 mM EGTA (absence of calcium)
T1 sequence (Q9Y7Z8 whole entry, looked up): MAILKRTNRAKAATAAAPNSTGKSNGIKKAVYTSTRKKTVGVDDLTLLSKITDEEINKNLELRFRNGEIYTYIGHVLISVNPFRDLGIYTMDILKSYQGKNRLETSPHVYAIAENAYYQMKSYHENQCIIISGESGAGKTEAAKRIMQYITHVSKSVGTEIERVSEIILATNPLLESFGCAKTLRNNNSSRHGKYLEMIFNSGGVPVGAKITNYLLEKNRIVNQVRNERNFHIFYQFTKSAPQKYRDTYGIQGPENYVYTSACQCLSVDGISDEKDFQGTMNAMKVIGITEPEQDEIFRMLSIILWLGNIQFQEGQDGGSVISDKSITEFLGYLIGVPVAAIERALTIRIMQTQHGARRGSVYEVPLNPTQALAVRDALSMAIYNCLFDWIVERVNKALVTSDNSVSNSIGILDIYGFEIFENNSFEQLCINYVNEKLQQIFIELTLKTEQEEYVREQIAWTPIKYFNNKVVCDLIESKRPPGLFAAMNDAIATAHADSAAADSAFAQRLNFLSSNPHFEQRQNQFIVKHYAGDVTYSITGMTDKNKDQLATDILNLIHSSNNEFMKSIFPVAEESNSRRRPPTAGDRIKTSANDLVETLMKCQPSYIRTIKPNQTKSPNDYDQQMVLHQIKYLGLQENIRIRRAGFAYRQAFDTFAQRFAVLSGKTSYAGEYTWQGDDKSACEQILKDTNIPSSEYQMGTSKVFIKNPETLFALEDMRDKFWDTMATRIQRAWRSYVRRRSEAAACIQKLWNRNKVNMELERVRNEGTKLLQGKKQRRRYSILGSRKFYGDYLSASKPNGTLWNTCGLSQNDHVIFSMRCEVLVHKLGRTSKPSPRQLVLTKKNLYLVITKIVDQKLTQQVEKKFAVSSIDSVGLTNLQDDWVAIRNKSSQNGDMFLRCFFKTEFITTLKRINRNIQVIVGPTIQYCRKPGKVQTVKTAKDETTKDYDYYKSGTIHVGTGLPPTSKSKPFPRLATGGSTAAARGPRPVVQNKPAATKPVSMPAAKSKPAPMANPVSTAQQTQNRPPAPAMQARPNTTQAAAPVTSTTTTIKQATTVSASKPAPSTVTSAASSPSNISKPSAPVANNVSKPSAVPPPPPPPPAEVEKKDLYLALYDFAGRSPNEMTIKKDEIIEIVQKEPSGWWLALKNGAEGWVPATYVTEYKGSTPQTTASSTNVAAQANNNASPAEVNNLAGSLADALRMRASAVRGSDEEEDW

[2] = biological target: T2, CyPet–Myo1^IQ12–YPet FRET reporter protein (S. pombe); experiment: as above
T2 sequence (Q9Y7Z8 whole entry, looked up): T1 sequence (Q9Y7Z8 whole entry, looked up)

With “Cam1 (wild type, amino-terminally acetylated fission yeast calmodulin) (from UniProt P05933 1-150) (natural protein)” the pKd [1] was over 7.00, the KD of the first binding event [2] was under 100 nM and the KD of the second binding event [2] was 680 nM.
